Experimental data reported in IntAct's records for PubMed 35512704.

B1: Speckle-type POZ protein (Homo sapiens), O43791 (parent)
chain: MSRVPSPPPPAEMSSGPVAESWCYTQIKVVKFSYMWTINNFSFCREEMGEVIKSSTFSSGANDKLKWCLRVNPKGLDEESKDYLSLYLLLVSCPKSEVRAKFKFSILNAKGEETKAMESQRAYRFVQGKDWGFKKFIRRDFLLDEANGLLPDDKLTLFCEVSVVQDSVNISGQNTMNMVKVPECRLADELGGLWENSRFTDCCLCVAGQEFQAHKAILAARSPVFSAMFEHEMEESKKNRVEINDVEPEVFKEMMCFIYTGKAPNLDKMADDLLAAADKYALERLKVMCEDALCSNLSVENAAEILILADLHSADQLKTQAVDFINYHASDVLETSGWKSMVVSHPHLVAEAYRSLASAQCPFLGPPRKRLKQS
partner: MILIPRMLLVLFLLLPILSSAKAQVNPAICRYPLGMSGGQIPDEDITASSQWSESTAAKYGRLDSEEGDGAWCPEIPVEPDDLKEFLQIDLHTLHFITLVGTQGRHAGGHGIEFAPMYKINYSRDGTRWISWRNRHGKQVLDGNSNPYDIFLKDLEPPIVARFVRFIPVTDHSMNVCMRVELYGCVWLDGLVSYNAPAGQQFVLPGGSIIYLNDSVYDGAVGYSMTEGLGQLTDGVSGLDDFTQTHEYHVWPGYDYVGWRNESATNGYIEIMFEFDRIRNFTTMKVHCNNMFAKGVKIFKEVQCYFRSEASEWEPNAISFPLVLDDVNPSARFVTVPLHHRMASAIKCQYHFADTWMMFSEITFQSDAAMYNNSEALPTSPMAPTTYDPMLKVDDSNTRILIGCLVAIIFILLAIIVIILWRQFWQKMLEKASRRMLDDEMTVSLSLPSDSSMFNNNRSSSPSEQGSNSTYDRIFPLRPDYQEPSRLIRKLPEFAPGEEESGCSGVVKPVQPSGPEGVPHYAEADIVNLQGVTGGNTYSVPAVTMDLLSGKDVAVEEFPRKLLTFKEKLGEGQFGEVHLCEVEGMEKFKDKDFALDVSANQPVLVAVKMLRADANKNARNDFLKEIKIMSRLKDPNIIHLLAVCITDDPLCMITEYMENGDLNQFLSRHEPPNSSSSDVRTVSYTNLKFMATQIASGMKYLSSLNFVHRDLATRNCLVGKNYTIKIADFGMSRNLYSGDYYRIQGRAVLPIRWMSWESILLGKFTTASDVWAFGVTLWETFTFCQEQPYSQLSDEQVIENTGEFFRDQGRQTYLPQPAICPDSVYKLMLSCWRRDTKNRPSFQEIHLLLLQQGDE
B2: Speckle-type POZ protein (Homo sapiens), O43791 (parent)
chain: B1 chain
partner: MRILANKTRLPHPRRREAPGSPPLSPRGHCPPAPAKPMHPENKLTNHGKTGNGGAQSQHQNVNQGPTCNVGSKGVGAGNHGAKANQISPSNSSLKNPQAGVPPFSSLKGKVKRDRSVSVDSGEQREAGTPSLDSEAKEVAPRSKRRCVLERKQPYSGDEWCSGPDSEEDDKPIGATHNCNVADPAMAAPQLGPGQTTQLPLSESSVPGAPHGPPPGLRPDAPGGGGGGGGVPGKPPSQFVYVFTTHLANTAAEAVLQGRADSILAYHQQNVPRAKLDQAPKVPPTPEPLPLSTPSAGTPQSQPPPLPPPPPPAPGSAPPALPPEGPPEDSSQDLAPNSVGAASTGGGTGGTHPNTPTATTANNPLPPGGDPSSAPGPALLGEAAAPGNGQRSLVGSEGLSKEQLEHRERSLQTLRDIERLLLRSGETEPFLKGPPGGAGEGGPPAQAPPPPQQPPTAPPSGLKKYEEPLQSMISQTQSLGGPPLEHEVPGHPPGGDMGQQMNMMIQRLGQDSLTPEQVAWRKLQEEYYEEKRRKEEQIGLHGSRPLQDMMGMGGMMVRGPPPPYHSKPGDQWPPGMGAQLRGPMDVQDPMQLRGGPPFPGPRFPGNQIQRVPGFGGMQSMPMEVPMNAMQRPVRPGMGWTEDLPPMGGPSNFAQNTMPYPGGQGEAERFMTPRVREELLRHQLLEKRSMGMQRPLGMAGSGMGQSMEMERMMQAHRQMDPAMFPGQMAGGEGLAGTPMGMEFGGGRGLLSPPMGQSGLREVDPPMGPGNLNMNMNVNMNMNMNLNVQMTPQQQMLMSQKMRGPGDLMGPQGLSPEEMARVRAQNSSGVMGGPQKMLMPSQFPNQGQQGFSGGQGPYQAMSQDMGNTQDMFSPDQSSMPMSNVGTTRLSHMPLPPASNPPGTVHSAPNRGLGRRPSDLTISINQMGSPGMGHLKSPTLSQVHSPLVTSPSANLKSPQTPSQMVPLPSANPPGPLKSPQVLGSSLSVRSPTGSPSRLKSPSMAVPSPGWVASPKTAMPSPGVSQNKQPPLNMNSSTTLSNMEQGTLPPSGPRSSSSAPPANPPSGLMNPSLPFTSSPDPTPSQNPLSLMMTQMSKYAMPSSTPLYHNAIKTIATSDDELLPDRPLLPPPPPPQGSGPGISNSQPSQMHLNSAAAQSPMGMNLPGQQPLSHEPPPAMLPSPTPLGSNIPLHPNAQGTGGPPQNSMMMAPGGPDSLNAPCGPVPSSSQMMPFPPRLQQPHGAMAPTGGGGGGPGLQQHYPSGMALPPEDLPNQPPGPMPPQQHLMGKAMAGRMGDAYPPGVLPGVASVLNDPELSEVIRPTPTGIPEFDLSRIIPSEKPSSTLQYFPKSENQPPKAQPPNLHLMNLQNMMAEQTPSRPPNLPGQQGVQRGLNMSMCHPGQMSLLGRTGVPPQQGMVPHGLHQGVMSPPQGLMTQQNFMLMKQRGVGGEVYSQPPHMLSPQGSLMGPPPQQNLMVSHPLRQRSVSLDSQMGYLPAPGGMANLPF
B3: Mothers against decapentaplegic homolog 4 (Homo sapiens), Q13485 (parent)
chain: MDNMSITNTPTSNDACLSIVHSLMCHRQGGESETFAKRAIESLVKKLKEKKDELDSLITAITTNGAHPSKCVTIQRTLDGRLQVAGRKGFPHVIYARLWRWPDLHKNELKHVKYCQYAFDLKCDSVCVNPYHYERVVSPGIDLSGLTLQSNAPSSMMVKDEYVHDFEGQPSLSTEGHSIQTIQHPPSNRASTETYSTPALLAPSESNATSTANFPNIPVASTSQPASILGGSHSEGLLQIASGPQPGQQQNGFTGQPATYHHNSTTTWTGSRTAPYTPNLPHHQNGHLQHHPPMPPHPGHYWPVHNELAFQPPISNHPAPEYWCSIAYFEMDVQVGETFKVPSSCPIVTVDGYVDPSGGDRFCLGQLSNVHRTEAIERARLHIGKGVQLECKGEGDVWVRCLSDHAVFVQSYYLDREAGRAPGDAVHKIYPSAYIKVFDLRQCHRQMQQQAATAQAAAAAQAAAVAGNIPGPGSVGGIAPAISLSAAAGIGVDDLRRLCILRMSFVKGWGPDYPRQSIKETPCWIEIHLHRALQLLDEVLHTMPIADPQPLD
partner: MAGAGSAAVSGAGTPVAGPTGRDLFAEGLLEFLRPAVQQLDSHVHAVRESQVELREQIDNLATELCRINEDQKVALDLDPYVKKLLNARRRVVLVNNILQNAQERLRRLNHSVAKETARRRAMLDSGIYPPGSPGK
B4: Speckle-type POZ protein (Homo sapiens), O43791 (parent)
chain: B1 chain
partner: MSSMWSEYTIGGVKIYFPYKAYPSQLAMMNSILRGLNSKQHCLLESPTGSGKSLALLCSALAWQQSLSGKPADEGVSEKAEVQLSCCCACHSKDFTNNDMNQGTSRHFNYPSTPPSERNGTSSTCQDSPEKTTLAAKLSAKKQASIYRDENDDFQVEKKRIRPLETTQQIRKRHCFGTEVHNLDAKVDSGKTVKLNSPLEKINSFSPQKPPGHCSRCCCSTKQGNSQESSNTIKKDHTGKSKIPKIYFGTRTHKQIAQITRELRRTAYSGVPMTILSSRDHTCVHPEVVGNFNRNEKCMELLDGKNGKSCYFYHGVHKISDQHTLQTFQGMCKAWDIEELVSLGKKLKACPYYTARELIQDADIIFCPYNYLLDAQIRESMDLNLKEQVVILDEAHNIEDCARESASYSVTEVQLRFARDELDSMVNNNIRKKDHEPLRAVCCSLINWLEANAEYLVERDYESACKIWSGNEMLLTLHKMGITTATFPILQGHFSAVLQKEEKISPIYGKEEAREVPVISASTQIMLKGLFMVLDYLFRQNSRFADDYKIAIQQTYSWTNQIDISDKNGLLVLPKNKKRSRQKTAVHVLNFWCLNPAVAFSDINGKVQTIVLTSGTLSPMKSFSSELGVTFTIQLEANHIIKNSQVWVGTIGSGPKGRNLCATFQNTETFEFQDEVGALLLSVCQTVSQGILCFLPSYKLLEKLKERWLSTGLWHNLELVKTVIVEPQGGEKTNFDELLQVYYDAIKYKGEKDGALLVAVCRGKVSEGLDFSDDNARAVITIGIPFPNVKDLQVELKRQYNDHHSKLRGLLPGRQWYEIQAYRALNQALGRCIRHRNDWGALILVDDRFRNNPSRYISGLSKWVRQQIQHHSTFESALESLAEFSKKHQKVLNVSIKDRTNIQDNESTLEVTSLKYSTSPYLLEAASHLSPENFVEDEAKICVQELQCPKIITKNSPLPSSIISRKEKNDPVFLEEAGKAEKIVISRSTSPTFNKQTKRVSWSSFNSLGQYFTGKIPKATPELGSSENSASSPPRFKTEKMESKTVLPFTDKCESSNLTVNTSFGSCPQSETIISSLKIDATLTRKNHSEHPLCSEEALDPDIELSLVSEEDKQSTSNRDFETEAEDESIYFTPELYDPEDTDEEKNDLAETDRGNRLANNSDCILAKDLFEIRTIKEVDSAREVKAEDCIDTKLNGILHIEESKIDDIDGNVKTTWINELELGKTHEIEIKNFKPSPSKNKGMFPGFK

Variants of: B1
Settings: with ddr2_human DDR2, Q16832

| Variant | effect of a mutation on the interaction |
| --- | --- |
| Y87C | with no effect |

Variants of: B1
Settings: with ddr2_human DDR2, Q16832
Remark: another data set of the same source

| Variant | effect of a mutation on the interaction |
| --- | --- |
| F102C | with no effect |

Variants of: B1
Settings: with ddr2_human DDR2, Q16832
Remark: another data set of the same source

| Variant | effect of a mutation on the interaction |
| --- | --- |
| F133L | with no effect |

Variants of: B1
Settings: with ddr2_human DDR2, Q16832
Remark: another data set of the same source

| Variant | effect of a mutation on the interaction |
| --- | --- |
| F133V | with no effect |

Variants of: B2
Settings: with bcl9l_human BCL9L

| Variant | effect of a mutation on the interaction |
| --- | --- |
| F102C | with no effect |

Variants of: B2
Settings: with bcl9l_human BCL9L
Remark: another data set of the same source

| Variant | effect of a mutation on the interaction |
| --- | --- |
| Y87C | with no effect |

Variants of: B2
Settings: with bcl9l_human BCL9L
Remark: another data set of the same source

| Variant | effect of a mutation on the interaction |
| --- | --- |
| F133V | with no effect |

Variants of: B2
Settings: with bcl9l_human BCL9L
Remark: another data set of the same source

| Variant | effect of a mutation on the interaction |
| --- | --- |
| F133L | with no effect |

Variants of: B3
Settings: with snapn_human SNAPIN

| Variant | effect of a mutation on the interaction |
| --- | --- |
| R361H | with no effect |

Variants of: B4
Settings: with fancj_human BRIP1, Q9BX63

| Variant | effect of a mutation on the interaction |
| --- | --- |
| F133L | with no effect |

Variants of: B4
Settings: with fancj_human BRIP1, Q9BX63
Remark: another data set of the same source

| Variant | effect of a mutation on the interaction |
| --- | --- |
| F133V | with no effect |

Variants of: B4
Settings: with fancj_human BRIP1, Q9BX63
Remark: another data set of the same source

| Variant | effect of a mutation on the interaction |
| --- | --- |
| F102C | with no effect |
